US20230256057A1

Biological target: IL-7 receptor (human) (UniProt P16871)
Test: cell-based or functional assay

Chain of UniProt P16871 (P16871 21-459, chain 1 of 2): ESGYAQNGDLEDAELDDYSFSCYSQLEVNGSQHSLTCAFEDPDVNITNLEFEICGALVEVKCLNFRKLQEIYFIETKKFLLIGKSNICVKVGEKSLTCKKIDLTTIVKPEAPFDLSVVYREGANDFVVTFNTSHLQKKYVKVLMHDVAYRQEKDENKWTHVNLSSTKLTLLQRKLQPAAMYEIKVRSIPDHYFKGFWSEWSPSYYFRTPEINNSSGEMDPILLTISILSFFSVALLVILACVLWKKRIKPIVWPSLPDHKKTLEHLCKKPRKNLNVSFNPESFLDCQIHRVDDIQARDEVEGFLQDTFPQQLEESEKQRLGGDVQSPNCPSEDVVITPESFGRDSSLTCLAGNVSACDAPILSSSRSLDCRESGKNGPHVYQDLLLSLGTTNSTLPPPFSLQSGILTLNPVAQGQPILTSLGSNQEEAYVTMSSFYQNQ
Chain of UniProt P16871 (P31785 23-369, chain 2 of 2, further chain): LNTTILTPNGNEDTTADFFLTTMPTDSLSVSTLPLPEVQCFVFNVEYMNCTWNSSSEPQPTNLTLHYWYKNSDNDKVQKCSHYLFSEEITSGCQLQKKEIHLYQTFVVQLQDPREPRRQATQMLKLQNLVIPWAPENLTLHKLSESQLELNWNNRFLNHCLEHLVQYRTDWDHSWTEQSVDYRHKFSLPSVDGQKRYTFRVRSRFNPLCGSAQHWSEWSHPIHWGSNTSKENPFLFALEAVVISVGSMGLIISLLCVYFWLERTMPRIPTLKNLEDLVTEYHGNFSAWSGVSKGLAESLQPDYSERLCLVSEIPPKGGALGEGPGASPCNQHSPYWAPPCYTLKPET

- pSTAT5 expression in CD3+ T cells of COVID19+ patients' whole blood, ratio to unstimulated condition; supernatant dilution 1/2.5: 6.5 fold
- pSTAT5 expression in CD3+ T cells of COVID19+ patients' whole blood, ratio to unstimulated condition; supernatant dilution 1/5: 5.7 fold
- pSTAT5 expression in CD3+ T cells of COVID19+ patients' whole blood, ratio to unstimulated condition; supernatant dilution 1/10: 4.9 fold
Substance: human interleukin-7 fused to human Fc sequence of IgG2 (hIL-7-Fc) (Fc fusion)
